Experimental data taken from the NTF2 design screens of Basanta et al. (2020).

Test: protease stability score; higher = more stable; yeast display proteolysis, trypsin and chymotrypsin;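 further: relative to predicted unfolded state with 0 unfolded-like and 1 meaning tenfold more protease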

Sequence: DEREKDVEHWFQRLIEAQITGDEEEFDELADPNVLIEINGRELHGRDDFHKYLKRVDHFEIQHFRHHHRHIFDGKVYFNGHSELHVTVGDKRFRYEDEIHHISLKIDGRWILKSVHFA
- protease stability score: 0.635

Sequence: DEREKEAKTLHQEWFRALQTGNEKRLHELLDPHVRSDVNGVKLHGRHALIKFLVKWLRQIDHNERLEIHDIRFQGDKSEEDVRVVVHIDGRRIDYETHVHLDIYDGVIREVEIDIK
- protease stability score: 1.18

Sequence: DEREKEALDIAREVLHNIMTGDWERLSQLLDPNTRFHEHWNGVHIDLHGRETVSHLLFRHVKHIRIEHVHLEDMVVIGEKAIIHSRRHIEIDGKHMTHHVLLYLLVIDGKIKDVRLHLE
- protease stability score: 0.869

Sequence: DEREKEHETQIRLLIHAIQTGDESMFHKMMDPNVRIQVGDKHIHGREFFVEIFKKLIDRYPGIQLHIRIHSIRFQGEKVTIDERLEIIVGDKEMRFETEIFSQKVNGRWLIEFERIQ
- protease stability score: 0.579

Sequence: DEREKELERIARELLKALYTGDEDILDKLVDPNVRLELDIDGKTNDIHGMENWFRFYETQWKKLGVDVYDIKDMDVWNGKITINSRVEVNGRYIDTRLILVVIDGRMHEIHIKEK
- protease stability score: 1.23

Sequence: DEREKETERMLELFIKVLLTGNEHDLMKLADPHVKLDINGREIHGREHLEEMWRHLWIDDSKRREVRNVGEWSHIYGETDGTFNGKKVRDTVEIRLYIVNGKAHRIYIIER
- protease stability score: 0.655

Sequence: DEREKFAEEIMEIFIRDVLTGDFDSLHKLIDPNTKIDLHIGDKIRPLHGREEFVKWVKEMRIHRWDITDMKVIGDKAHIDTTVDGEFNGRRTRFRQIINLDMVNGRLREIQITIG
- protease stability score: 2.2

Sequence: DEREKFLEEMVEEWFRNWVTGDEDRFEELADPDVRFHIGDKDSHGREAFEELMKRMGFKYKHIELHDVHIQGDKSHIDGHVQGQVNGQERDSHVHLDLVVVNGRLRTMEVRFR
- protease stability score: 1.44

Sequence: DEREKHAKDFFDILLHLLLTGDWDKIIRMADPDVKLEIGDKRFHGMEHISETWLKRFTRLGVDHQHFHLHTVKFINGVATIHGRQHLHVGDKTIDLEVIIYVEKIDGRWILNNIEVR
- protease stability score: 1.11

Sequence: DEREKLAKKFLELFLHYIETGDEEVLRKLLDPSTRLEVNGRDNHGWKMFIWLLRELRIHRVHMELKVTDIQGDYVRNEGRLRSDVEYGDKRFETEYMVIIFLEKVDGRWHLHSFEVD
- protease stability score: 1.56

Sequence: DEREKREEEVLKIIIEITETGDWRIFMELADPHVKLDIGDKDMHGMEEAERLWELMHKLLGINHIRFRHLRIQGDKVDMEFNVTIGDKQVDTRRHVITVDGRLHEVHEEFK
- protease stability score: 0.399

Sequence: DEREKRLKDIALIVMHLLLTGDEERFHELFDPDTKMTLIFNGQIETSHGMEEVRELLRYWLEEIRIEHYHLTEIHLIGDKTHVHGELVGEVNGKRFKTHIHITIVVIDGKVHSVEFELR
- protease stability score: 1.77

Sequence: DEREKRWRKLHQDILEAIWTGDEETFLRLADPDMRFYLIVNGRTVDLHGMELASVVLHERRKRFKNATWHLKSERVQGNYSELNEELIVGDKTYDIRINLVHIDGKLHSVVIEDI
- protease stability score: 1.01

Sequence: DEREQEAHRAIEKFMHYVRTGNEDKLKEFLDPNALNLFDGRHDVGREDVTESMIEIMRHLGVTLHDVKITDMRTQGDYLTVNGWFNLEYDGVRDNHKVFIHSRKVDGKWIITKIDWR
- protease stability score: 1.26

Sequence: DERERDAEDALDELREIWRTGDWELIHQMLDPEVRLDINGVRLVGREHWVDEVRRLFHKVPGMTYHLKDVHFQGNKMHVDILSRYDGRESKVDLILLKINGKWLNKEVRIREE
- protease stability score: 0.807

Sequence: DERERDARIYFHLLLHVIMTGNEEDLERFMDPHARIQIGDKMVHGRENVYHELLRIAREMRLHHSHIHEIRVIDGRVILKGHLDLEVGDKRELVDVEWIVIKVNGKWIFHSVHFR
- protease stability score: 2.53

Sequence: DERERDARKAVKDFIESIRTGDEDEIEKLLDPHVRVDAPNHERHGREEVVEELREMRIEIRDVRFRHIHVQGNKIEVHVRVHGSLMINGREYRIDTTMIIIMEKIDGRWILTHIEEK
- protease stability score: 1.62

Sequence: DERERDIREWMRIYIEMWETGDEDKLLTMIDPHYREETENEDIHGREQAHKKIKDIKERADHLHIRVHDVDIIDGVAVLDVEILIIIGDKVIRVRTTIIMRKINGKWFIERVHIK
- protease stability score: 0.235

Sequence: DERERELKQALDLFKDIIKTGDEEALTRLIDPNAKMRVNGQDIHGWHHFILMMIRIYLHMGIKHIIDHRLHIQGDYLHLDTEVHVDGRSIRYHIVLFKFDGRWHLESSSSI
- protease stability score: 1.6

Sequence: DERERIAEEILRRIAKLMETGDENEMEHLMDPNVRLVFNGVRLHGMEDWEREMRRFDHIKIHTNEIQHIRLQGEKVDNDVRVDLLYHQGDKSWKIDTRTHYHFQKVNGKWIVREIIIE
- protease stability score: 1.39

Sequence: DERERLLLEWARKFMENLITGNEELLKEMHDPHYRSHIGDKDLVGREVHHEFWEKHFRHWRIEKFDVRDYHTQGDKARLVVRIVIDVDGRRIDTEIHIHYDIIDGQLRLVTLQYE
- protease stability score: 1.5

Sequence: DERESFIKEVMEQFNRDLLTGDEEHFKERADPDVKIIFDGRETHGWKVLHHLLREIRIRHMHIDDYDIQGDKARVHSTADVEYGDKEDELKIEIRLVVINGRLKEVSIIFR
- protease stability score: 1.16

Sequence: DERESLLEKLLRLWIELLKTGDEDTMLKLADPDAKYHVNGKDFHGWELASRIWFEERERLGIKHVHDHEIRFQGEKTELHGILLFDGVDVKFRIIIIVFNGRLHHVIVERD
- protease stability score: 1.53

Sequence: DERFELFDWVVRLILHAHHTGDERIIHELADPNVRYIINGVTVHGRELMYRLAHEHLREIWVHHVQVRHFDVVGDFFRVEMEVVGLVNGVHYNEHRRLHLYVVNGRLKSSRIEIE
- protease stability score: 1.03

Sequence: DERHDDRNHAIEAFKFMLDTGDWRVYSRNIDPNMRLEIGDKTFHGREELEHHITQIDHHHTHTLTIEHIDRVGDFVDIHITLSVTVIFDGRNETKTFHVDIHLVKIDGKWLIHKESVK
- protease stability score: 0.545

Sequence: DERHDDSRDLAHIFLHLLHTGDEDTIQEYLDPNAKYTLNINGVRVIMHGRETITRHWKEWLDKFKNATIHINDSTVQGDKVHNHTSMEINGQTHNTWIVVVVFNGKVRMIIVDVI
- protease stability score: 1.29

Sequence: DERHEDIKKFMELVLRLAKTGDEDHFSNMVDPHARLEIGDKHYIGRELVSTLFHEIRLHDMKIHNIISYGDKVKADVRLDIEFDGRRWNINTLLIIHKVNGQWLLESERRH
- protease stability score: 1.14

Sequence: DERHEHAKEYLEMWLHSIFTGDERTLMELVDPNAKHLVNGRERHGRDELSRILIHIRMHVRDSKLRDMRVVGDKAIIHTEVDEELHFNGRTVRMIVEVEIYLFKVNGKWVFTEIRII
- protease stability score: 1.29

Sequence: DERHEHTHELMRLLIEAFVTGDERLSEELADPHTRLHVNGVHNWGRERFVEVVRRLWSQVKNAKWTLRDFHVQGDKNEVVGDVHVDGQTIHVRFIFFVFNGRLESEEIRVH
- protease stability score: 2.4

Sequence: DERHEHVREMSHRMEEWFETGDEDKWVKNADPNVITDINGQKLHGRENAARFLLHYHNRFKGMRFDIEDVDIQGEKVHIHSVQHFDGVKFDVRLIFEVFDGVIKSMHVEVK
- protease stability score: 0.706

Sequence: DERHEKAERVTRELIKLLITGDEDLLDDLIDPNARIEIGDKVTHGRDKFSREISEMGVDHVELKEIHVYGDKAIIKGKLDINGKRNKFILIMEKINGRWFLRSMRVEDH
- protease stability score: 1.32

Sequence: DERHELTRRVAVLWLHIFMTGDEDLFEKLADPTTRQEVLFNGRIYSLVGREEVSRWLREMVHELRFRHIEDKDKEIQGDKVLIDGILHIEAENHSTTIRSRIVLIVVNGKIHTIKFEFH
- protease stability score: 1.55

Sequence: DERHETEERFLRTLIHSHMTGDEESHFEMMDPHAKLIYNGKEIHGMEVLRKELEEWRKKLGANHSHITIDHVELQGNKAHFDVTIDLIVDGRVIRTRIHIDIEKVDGRWIITRVIVK
- protease stability score: 0.489

Sequence: DERHHRVKHWVHRFVHAWITGDERELRELLDPNVRLNFEFDGRREENVGRRDVDRFIHEILEKYKNVTIIFRDFEIVGDKFHLHTELIIGDKKHRIHIEINVINGQHEWIKIHIE
- protease stability score: 1.66

Sequence: DERHKHDIEVAKEFLEVERTGDEHLLRRLADPHVLSNINGVHNHGRETVIEFWREWFEEWRVTEIKIRHLDAYDGRVRIEGRMRVIYDGREHTIDSEFRLVVVNGRLKSMELILH
- protease stability score: -0.043

Sequence: DERHKMIKDFAHLMLRARKTGDWDVMTRLFDPNTRVTQGDFELHGMESFSDWLHELHRQVPNVVEHDHSVDAFDGRVHLKTEERINGRILRIRIIIIVVDGKIKELRIEVD
- protease stability score: 1.37

Sequence: DERHNKQWNKELIKIWTDGDHKKFSEMLDKDVQIQVGDKEYHGREEIVRQYKTLMDRADHFEVKRYEVKGNDITIIFTFQVNGRRDQVRVVFVIENGHVKKITMDKK
- protease stability score: 1.97

Sequence: DERHQDLREVLTRLMHLLLTGDWDEFHRLADPSTQLEVGDFHFHGWEMVVEFLKRFYFHIRLRRFHIEHVRVINGRIDSDTRVESEVNGVRDVERTHVHLNKVDGRWVIKRMHME
- protease stability score: 0.966

Sequence: DERHRYMKLFLDIFLHLYQTGDWDKLEHLADPHVKLIFENHELHGRDSFFRFILEWLRHMGVNHVEFHNIHYDLVGDKVHLEVRLIVFINGRIHHVIIHIIAEKIDGKWHLRSHEIRHE
- protease stability score: 1.34

Sequence: DERKEDLDRALEEFLRSVETGDEELNERLADPNVKLVIDGVKYHGMEFIVKQLDEWRIHDMRIRRIRNVGEKVYVDLSVDGNFNGRRYRTEVKIVFTKINGRWLLETHIVD
- protease stability score: 1.87

Sequence: DERKEHSIKVAKNIFNDILTGDEDRMKEMMDPDVKLHIGDKDVIGRENVIKFMIEEWNHIRFEDFKHKDVRVQGDKAILEGHINVEYGDKHRNVDSRYLVFVIDGRIKSIEIRLH
- protease stability score: 1.39

Sequence: DERKEMTRHFTEEWIRLWETGDFEHMHDLFDPHARIIIDGQDHHGMEHVNERWRRIKNIRLEIKDFKVYGDKIFIDLKVTVNGREEKVEIIVVVVDGKFKMIEFRFV
- protease stability score: 2.11

Sequence: DERKEYVEILVRILIELFLTGDWEHMLRLADPNMRFRIGDKETHGMEEAYKLMEELKEEIRIHEVRLTHIRVYGDFADTETRVHVEVGDKIVDYDMRLHLVVVNGQLRHITIEIE
- protease stability score: 0.731

Sequence: DERKHFFDIALEILKKTIKTGDEREHNENVDPRVKNDINGVELHGMETVSEFHLRLWEEMRVEEIHIRDLDIQGNKAVFHTSLRRRYNGRELEIELHYIVVKVNGRWFIQEIIIR
- protease stability score: 1.57

Sequence: DERKKATKETMRLEEEARNTGDEHELTKLVDPHVRLVIDGVNFIGWEVFLKRFNDLGADHVELRIDEIELIGDKVIVHGTLRIRVGDKETQEKVELYWLKINGRWVLEQVNHK
- protease stability score: 1.71

Sequence: DERKKDAERMVEWIMHLWETGNFERLFRLADPHVRFILHQGDKELHFHGRELVEEAIFRLLLHIRIDDRIDRRVHIFPNRLDIHGQVHVHVGDKRHDLIIHIEVFIIDGKLKRIEIEIE
- protease stability score: 1.49

Sequence: DERKTISHMIEEIWHRIIRTGDEEAFIKYFDPHARIHVDGKEIHGREKVLEFLIEIFRHLRVEDYTVHSYNTQGDKIHIDTRMDGEVDGRREVNQTRIIATKINGQWILTEVHLS
- protease stability score: 0.36

Sequence: DERLEIARRVVELSIRMLHTGNEEVVRHLLDPNYRLHINGVHLIGMEEFSKWLKELRFDLEHVQMHHITDINGRLFVIGEIIGRLHYDGVTVREERESIWFIEKVDGKWIIKEVELR
- protease stability score: 1.18

Sequence: DERMEVIEELLKKISHALYTGNEKLLEQMADPNVRLEIGDKEFVGWEQLLELIREIRLSITDIDIRDERLIGNKIHLRGESRTIHVIGDKTWEERRDVHFVILKIDGKWVMHEIEYR
- protease stability score: 1.95

Sequence: DERNDRAREYVELWEDALRTGDEHILMELADPHTRIEIGEFEIIGREEIMRFMNEIRVHVRESRIKRVTEIDGVLFADIHVRREFRFDGRSKEVRTDVIIIFNKFDGKWLLESVHVK
- protease stability score: -0.01
